The results in this text go back to US20250188166A1 (BRIGHT PEAK THERAPEUTICS, published 2025).

For experiment [1], the target named is human PD-1 on Jurkat T cells (human, UniProt Q15116 25-288). Nature of the experiment: cell-based or functional assay.
In experiment [2] the target is T1, recombinant Human Fc gamma RI/CD64 Protein (human, UniProt P12314 16-288).
T1 construct: also called FcγRI/(CD64); human Fc gamma receptor I
Nature of the experiment: ELISA; antibody coated, His-tagged receptor titrated. As for the experimental part: (§1) The interaction of the unmodified and of conjugated antibodies with human Fc gamma receptors I (FcγRI/CD64), with human Fc gamma receptors IIa (FcγRIIa/CD32a), with inhibitory human Fc gamma receptors IIb (FcγRIIb/CD32b), and with human Fc gamma receptors III FcγRIIIa/CD16 were measured by ELISA.
(§2) Briefly, Corning high-binding half-area plates (Fisher Scientific, Reinach, Switzerland) were coated overnight at 4° C. with 25 ul of unmodified and of conjugated anti-PD1 antibodies at 2.5 μg/ml in PBS. Plates were then washed four times with 100 ul of PBS-0.02% Tween20. Plates surfaces were blocked with 25 ul of PBS-0.02% Tween20-1% BSA at 37° C. during 1h. Plates were then washed four times with 100 ul of PBS-0.02% Tween20. Then twenty-five microliters of either recombinant Human Fc gamma RI/CD64 Protein (R&D systems, 1257-FC-050, CF), recombinant Human Fc gamma RIIA/CD32a (H167) Protein (R&D systems, 9595-CD-050, CF), recombinant Human Fc gamma RIIB/CD32b Avi-tag Protein (R&D systems, AVI1875-050, CF), or recombinant Human Fc gamma RIIIA/CD16a Protein (R&D systems, 4325-FC-050; CF) were added in five-fold serial dilutions ranging from 1000 nM to 0.001 nM into PBS-0.02% Tween20-0.1% BSA and incubated at 37° C. during 2h. Plates were then washed four times with 100 ul of PBS-0.02% Tween20. Twenty-five microliters of a 1/500 HRP-anti-His antibody in PBS-0.02% Tween20-0.1% BSA (R&D systems, anti-HIS-HRP Ab, #MAB050H) were added to each well and plates were incubated at Room Temperature during 1h. Plates were then washed four times with 100 ul of PBS-0.02% Tween20. Fifty microliters of TMB substrate reagent (#CL07, Merck, Buchs, Switzerland) were added to each well and incubated at 37° C. during 5 min. After 5 min at 37° C., Horseradish peroxidase reaction was stopped by adding 50 ul/well of 0.5M H2SO₄ stop solution. ELISA signal was then measured at 450 nm on an EnSpire plate reader from Perkin Elmer (Schwerzenbach, Switzerland).
(In general: ELISA stands for enzyme-linked immunosorbent assay.)

Experiment [3] addresses T2, recombinant Human Fc gamma RIIA/CD32a (H167) Protein (human, UniProt P12318 36-218, limits assumed).
T2 construct: also called FcγRIIa (CD32a)
T2 sequence (looked up): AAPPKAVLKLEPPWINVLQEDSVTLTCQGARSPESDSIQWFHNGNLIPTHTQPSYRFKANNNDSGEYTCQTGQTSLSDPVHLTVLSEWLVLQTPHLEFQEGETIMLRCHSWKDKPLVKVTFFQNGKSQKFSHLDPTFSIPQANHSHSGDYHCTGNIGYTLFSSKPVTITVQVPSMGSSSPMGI
The experiment is described as above. As for the experimental part: as §1, §2

Experiment [4] deals with T3, recombinant Human Fc gamma RIIIA/CD16a Protein (human, UniProt P08637 17-208, limits assumed).
T3 construct: also called FcγRIIIa (CD16)
The experiment is described as above. As for the experimental part: as §1, §2

In experiment [5] the target is T4, recombinant Human Fc gamma RIIB/CD32b Avi-tag Protein (human, UniProt P31994 46-217).
T4 construct: also called FcγRIIb (CD32b)
T4 sequence (looked up): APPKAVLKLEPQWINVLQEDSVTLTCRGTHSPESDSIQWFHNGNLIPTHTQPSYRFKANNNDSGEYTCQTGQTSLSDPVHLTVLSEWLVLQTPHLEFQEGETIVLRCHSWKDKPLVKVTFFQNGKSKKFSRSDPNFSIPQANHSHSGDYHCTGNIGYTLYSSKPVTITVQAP
The description is as above. As for the experimental part: as §1, §2

Experiment [6] deals with T5, recombinant biotinylated human FcRn (human, UniProt P55899 24-297; P61769 21-119, limits assumed, biotinylated).
T5 construct: Kit reagent; also called human neonatal Fc receptor
Nature of the experiment: AlphaLISA competition at pH 6; competitor human IgG acceptor beads. As for the experimental part: (§3) The interaction of the unmodified and of conjugated anti-PD1 antibodies with the human neonatal Fc receptor (FcRn) at pH 6 was measured using the AlphaLISA® Human FcRn Binding Kit (AL3095C) from Perkin Elmer (Schwerzenbach, Switzerland).
(§4) After 90 min at 23° C. in the dark, AlphaLISA® signal was measured on an EnSpire plate reader (Excitation at 680 nm, Emission at 615 nm) from Perkin Elmer (Schwerzenbach, Switzerland).
Background: In Alpha technology, singlet oxygen from a donor bead excites a nearby acceptor bead.

Experiment [7] concerns the target T5, recombinant biotinylated human FcRn. Described as above. As for the experimental part:
as §3, §4
This is another data set of the same source.

Experiment [8] addresses T1, recombinant Human Fc gamma RI/CD64 …. Nature of the experiment: ELISA: antibody coated (2.5 µg/ml), His-tagged recombinant human FcγRI/CD64 titrated (x-axis), anti-His-HRP/TMB, 450 nm. As for the experimental part: as §1
as §2, with “Plates were then washed four times with 100 ul of PBS-0.02% Tween20. Twenty-five microliters of a 1/500 HRP-anti-His antibody in PBS-0.02% Tween20-0.1% BSA (R&D systems, anti-HIS-HRP Ab, #MAB050H) were added to each well and plates were incubated at Room Temperature during 1h. Plates were then washed four times with 100 ul of PBS-0.02% Tween20. Fifty microliters of TMB substrate reagent (#CL07, Merck, Buchs, Switzerland) were added to each well and incubated at 37° C. during 5 min. After 5 min at 37° C., Horseradish peroxidase reaction was stopped by adding 50 ul/well of 0.5M H2SO₄ stop solution.” left out

For experiment [9], the target named is T6, Biotinylated Recombinant Human PD-1/CD279-Fc Chimera (human, UniProt Q15116 25-167, biotinylated).
T6 construct: Bought (Biolegend #789406); also called recombinant biotinylated human PD-1
Nature of the experiment: ELISA: antibody coated on the plate (5 µg/ml), biotinylated human PD-1-Fc titrated (x-axis, Concentration (nM)), streptavidin-HRP/TMB, 450 nm.

Experiment [10] has as its target T5, recombinant biotinylated human FcRn. Nature of the experiment: AlphaLISA competition at pH 6: test antibody titrated against human IgG acceptor beads for biotinylated human FcRn on streptavidin donor beads; loss of signal. As for the experimental part:
as §3, §4

Experiment [11] shares this target. In words: AlphaLISA competition at pH 6: test antibody titrated against human IgG acceptor beads for biotinylated human FcRn on streptavidin donor beads; normalized signal.

Read-outs that look alike come from different tables or passages of the source.

B1: LZM-009 (antibody, human IgG4 S228P, kappa)
heavy: not shown
light: EIVLTQSPATLSLSPGERATISCRASKGVSTSGYSYLHWYQQKPGQAPRLLIYLASYLESGVPARFSGSGSGTDFTLTISSLEPEDFATYYCQHSRELPLTFGTGTKVEIKRTVAAPSVFIFPPSDEQLKSGTASVVCLLNNFYPREAKVQWKVDNALQSGNSQESVTEQDSKDSTYSLSSTLTLSKADYEKHKVYACEVTHQGLSSPVTKSFNRGEC
notes: IgG4 anti-PD-1 antibody; also called CMP2000
For orientation: EC50 (read off the curve) means the concentration at which the effect is half-maximal. In general, Kd refers to the concentration at which binding is half-saturated. As to B1, the “EC50 (read off the curve)” value in experiment [1] is approximately 2 nM; in experiment [8] it was approximately 0.2 nM; in experiment [9], approximately 0.03 nM. The Kd is 0.315 nM in [2]; 1350 nM in experiment [3]; 1710 nM in [4]; 2630 nM in experiment [5]; 6 nM in experiment [6]; 6 nM in [7]. Also, the “IC50 (read off the curve)” value in [10] and in experiment [11] was approximately 5 nM each time.
